Experimental data published in the supplement of paper PMC9732359.
± gives the uncertainty stated by the source.

Assay: protein stability index of a GFP-peptide fusion (yeast GPS) (PSI 1-4); higher = more stable; sorted into four equal gates, so the index is relative within each strain
How it was run: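 Plasmids in a pooled yeast library fused tiled 17-residue yeast protein peptides downstream of GFP and also expressed Cherry. Mid-log cultures grown without leucine were sorted into four equal gates by GFP/Cherry fluorescence ratio. Each gate's plasmids were PCR-amplified and Illumina-sequenced, and reads were matched to strains by barcodes. The protein stability index is derived by multiplying each gate's read frequency by its gate number and summing the results.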

Row | Sequence | protein stability index (doa10∆) | protein stability index (pdr5∆) | protein stability index (san1∆) | protein stability index (ubr1∆)
1 | CNSLHIPQDFENEVSDI [ESC2] | 2.95 ± 0.06 | 3.03 ± 0.056 | 2.93 ± 0.088 | 2.92 ± 0.045
2 | CPLSQQFCGIKERNSLK [BRR2] | 2.88 ± 0.16 | 3.14 ± 0.1 | 2.71 ± 0.094 | 3.08 ± 0.076
3 | CPNSTGAELRSVCTEAG [RPT1] | 1.54 ± 0.053 | 1.56 ± 0.058 | 1.65 ± 0.098 | 1.55 ± 0.047
4 | CQEEVSTIEKDMKEYDS [SMC2] | 3.39 ± 0.12 | 3.51 ± 0.084 | 3.42 ± 0.081 | 3.63 ± 0.095
5 | CQYMVACVPLLPPPEDV [RPN1] | 2.03 ± 0.046 | 2.57 ± 0.073 | 2.65 ± 0.048 | 2.76 ± 0.053
6 | CRGELKADIGKPGRMPF [CDC53] | 2.21 ± 0.071 | 2.65 ± 0.069 | 2.91 ± 0.085 | 2.97 ± 0.067
7 | CRKLSFSDKVNALWILV [ITC1] | 1.72 ± 0.075 | 1.8 ± 0.044 | 1.5 ± 0.1 | 1.85 ± 0.051
8 | CRYSCLALERMVPKRST [YCS4] | 2.71 ± 0.27 | – | – | 2.02 ± 0.18
9 | CYQFAEYLFKPQLISDK [ARP7] | 2.38 ± 0.06 | 2.14 ± 0.049 | 2.2 ± 0.064 | 2.11 ± 0.04
10 | DAEVAQFLEQGLSIHPT [SRP68] | 2.79 ± 0.057 | 3 ± 0.063 | 2.76 ± 0.073 | 3.1 ± 0.042
11 | DAGSNQYYVTQHDKMVD [SWI1] | 3.04 ± 0.058 | 2.99 ± 0.046 | 2.95 ± 0.068 | 2.74 ± 0.045
12 | DAHKAEQEDIIEKTESV [SWI3] | 3.19 ± 0.086 | 3.32 ± 0.1 | 3.38 ± 0.046 | 3.21 ± 0.081
13 | DAISQVINIAKAHPNFP [FAS1] | 1.41 ± 0.076 | 2.65 ± 0.095 | 2.03 ± 0.26 | 2.91 ± 0.082
14 | DAIYRELTKNPNSNVEL [SMC1] | 3.31 ± 0.3 | 2.91 ± 0.15 | 3.33 ± 0.088 | 3.38 ± 0.13
15 | DAKKCIAACTGVPDDKW [FAS1] | 2.63 ± 0.092 | 2.35 ± 0.058 | 2.16 ± 0.11 | 2.78 ± 0.071
16 | DAKSSAYSSRFQTPFRR [RPL5] | 2.82 ± 0.067 | 2.83 ± 0.052 | 2.78 ± 0.054 | 2.91 ± 0.05
17 | DAMIAQRSKKIQPTAKV [DIS3] | 1.83 ± 0.082 | 1.99 ± 0.084 | 1.59 ± 0.067 | 1.69 ± 0.068
18 | DARSSRNFSLAIIDKNT [PRE4] | 3.02 ± 0.075 | 2.78 ± 0.083 | 2.98 ± 0.05 | 2.89 ± 0.056
19 | DATTWRYSMSEQFPFYL [IRR1] | 3.09 ± 0.098 | 2.94 ± 0.066 | 3.06 ± 0.063 | 3.07 ± 0.049
20 | DATYDSALELVGQLNKV [RPN6] | 3.11 ± 0.16 | 3.1 ± 0.11 | 3.27 ± 0.21 | 2.72 ± 0.28
21 | DCRMGNFYIQYDPKDGL [AAR2] | 2.77 ± 0.054 | 2.39 ± 0.058 | 2.31 ± 0.08 | 2.61 ± 0.037
22 | DDAMEINGEDPANNHQL [SMX2] | 3.38 ± 0.076 | 3.02 ± 0.086 | 3.3 ± 0.047 | 3.44 ± 0.071
23 | DDDIEKQEQEEKIKSKK [YCG1] | 3.08 ± 0.067 | 2.99 ± 0.056 | 3.01 ± 0.052 | 3.14 ± 0.049
24 | DDDVTPSTKVASSAVMN [YLR335W/NUP2] | 3.5 ± 0.14 | 3.19 ± 0.083 | 3.3 ± 0.065 | 3.26 ± 0.062
25 | DDEGSFAQENSELAVAT [SRB6] | 3.08 ± 0.065 | 3.25 ± 0.075 | 3.08 ± 0.054 | 3.3 ± 0.054
26 | DDESPRFVMPNQLLAAL [RRP6] | 1.98 ± 0.048 | 2.02 ± 0.052 | 1.88 ± 0.069 | 2.18 ± 0.042

Row | Sequence | protein stability index (doa10∆) | protein stability index (pdr5∆) | protein stability index (san1∆) | protein stability index (ubr1∆)
27 | DDFEVNVASLVRVQFQF [GRR1] | 2.57 ± 0.059 | 1.77 ± 0.089 | 1.78 ± 0.18 | 1.5 ± 0.089
28 | DDFQNFFDPKPFDQNLD [SWI1] | 2.53 ± 0.061 | 1.95 ± 0.055 | 2.13 ± 0.1 | 2.12 ± 0.052
29 | DDKLAYIRVNHADKDTF [POP8] | 2.9 ± 0.059 | 2.58 ± 0.059 | 2.72 ± 0.063 | 2.62 ± 0.049
30 | DDLKKDHIAIDWEDEEK [DSN1] | 2.73 ± 0.083 | 3.06 ± 0.072 | 3.07 ± 0.065 | 2.82 ± 0.063
31 | DDLQSSVIPEVDREAML [YCG1] | 2.63 ± 0.085 | 2.71 ± 0.081 | 2.48 ± 0.12 | 2.4 ± 0.078
32 | DDPVPTPPAIEHKPVSP [SSN2] | 2.63 ± 0.14 | 2.59 ± 0.26 | 2.72 ± 0.29 | 2.49 ± 0.16
33 | DDVLQTIITDCAFLLTK [YJL039C/NUP192] | 1.76 ± 0.057 | 2.08 ± 0.062 | 1.79 ± 0.098 | 2.34 ± 0.047
34 | DDYVLRIFAIAFTRKQA [RPS1A] | 1.77 ± 0.019 | 1.888 ± 0.017 | 1.94 ± 0.027 | 2.156 ± 0.015
35 | DEDLHEFQIEDAIWSLV [SRB8] | 3.4 ± 0.13 | 2.96 ± 0.086 | 2.88 ± 0.14 | 3.3 ± 0.26
36 | DEEENGSSDEDLKSLNV [SSN2] | 3.24 ± 0.11 | 3.54 ± 0.1 | 3.35 ± 0.057 | 3.23 ± 0.093
37 | DEFPELKEPVEDIIKRT [NUT2] | 3.5 ± 0.066 | 3.36 ± 0.07 | 3.31 ± 0.045 | 3.36 ± 0.048
38 | DEGTALSRLGLKRYCCR [RPB10] | 3.38 ± 0.11 | 3.23 ± 0.15 | 3.53 ± 0.079 | 2.79 ± 0.12
39 | DEHHESFELKEEDISDL [RRP6] | 3.01 ± 0.072 | 3.23 ± 0.084 | 2.9 ± 0.075 | 3.15 ± 0.059
40 | DEIATIQSKRLRNKIAG [RPS17A] | 3.15 ± 0.11 | 3.13 ± 0.099 | 3.33 ± 0.066 | 3.48 ± 0.14
41 | DEISPELLSKYKEQIIQ [SNU114] | 2.44 ± 0.079 | 2.57 ± 0.08 | 2.42 ± 0.079 | 2.68 ± 0.075
42 | DEITEDMFEMSDEEENN [SSN2] | 3.16 ± 0.099 | 3.39 ± 0.11 | 3.25 ± 0.08 | 3.2 ± 0.075
43 | DELEDDTLNETNLKMKR [RRP43] | 3.18 ± 0.093 | 3.25 ± 0.082 | 3.26 ± 0.075 | 3.36 ± 0.098
44 | DELLSQLDLCKLYFQLF [SRP68] | 1.56 ± 0.1 | 1.67 ± 0.11 | 1.46 ± 0.15 | 1.72 ± 0.057
45 | DELVLNFENDNENNSNG [REC8] | 2.88 ± 0.19 | 2.62 ± 0.28 | 2.64 ± 0.15 | 2.79 ± 0.16
46 | DERIEKELNTERQIFLE [CDC53] | 2.9 ± 0.1 | 3.09 ± 0.12 | 3.13 ± 0.097 | 3.12 ± 0.086
47 | DETYKGVEEVEGEYELT [RPL5] | 3.21 ± 0.16 | 3.43 ± 0.15 | 3.16 ± 0.23 | 2.82 ± 0.27
48 | DEVYVQNSKFLKVNVTL [YJL039C/NUP192] | 2.68 ± 0.064 | 2.78 ± 0.054 | 2.76 ± 0.06 | 2.45 ± 0.039
49 | DFAQKEINGDDDEDEDD [PRE10] | 3.09 ± 0.11 | 3.19 ± 0.071 | 3.22 ± 0.082 | 3.28 ± 0.063
50 | DFIKFDAGKLVYVTGGR [RPS4A] | 2.22 ± 0.13 | 2.1 ± 0.086 | 2.41 ± 0.1 | 2.36 ± 0.094
51 | DFIQLKQTAAYRTPGSS [SSN2] | 2.88 ± 0.064 | 2.98 ± 0.071 | 2.79 ± 0.083 | 2.92 ± 0.044
